Test results as given in the Human Domainome abundance scans (Beltran et al. 2025).
± gives the uncertainty stated by the source.

B1: Zinc finger homeobox protein 3, residues 2244 to 2299; numbered along this chain, Q15911 (parent)
chain: SSRTRFTDYQLRVLQDFFDANAYPKDDEFEQLSNLLNLPTRVIVVWFQNARQKARK

Variants of: B1
Experiment: abundance fitness (aPCA) (normalised: wild type 0, dead -1); higher = more abundant; growth selection in yeast, the domain comes from the species named
Settings: Homo sapiens

| Variant | abundance fitness |
| --- | --- |
| SSRTRFTDYQLRVLQDFFDANAYPKDMEFEQLSNLLNLPTRVIVVWFQNARQKARK [D27M] | -0.037 ± 0.088 |
| SSRTRFTDYQLRVLQDFFDANAYPKDPEFEQLSNLLNLPTRVIVVWFQNARQKARK [D27P] | -0.388 ± 0.1 |
| SSRTRFTDYQLRVLQDFFDANAYPKDFEFEQLSNLLNLPTRVIVVWFQNARQKARK [D27F] | -0.233 ± 0.15 |
| SSRTRFTDYQLRVLQDFFDANAYPKDYEFEQLSNLLNLPTRVIVVWFQNARQKARK [D27Y] | -0.16 ± 0.13 |
| SSRTRFTDYQLRVLQDFFDANAYPKDCEFEQLSNLLNLPTRVIVVWFQNARQKARK [D27C] | -0.294 ± 0.11 |
| SSRTRFTDYQLRVLQDFFDANAYPKDSEFEQLSNLLNLPTRVIVVWFQNARQKARK [D27S] | -0.077 ± 0.081 |
| SSRTRFTDYQLRVLQDFFDANAYPKDQEFEQLSNLLNLPTRVIVVWFQNARQKARK [D27Q] | -0.121 ± 0.11 |
| SSRTRFTDYQLRVLQDFFDANAYPKDEEFEQLSNLLNLPTRVIVVWFQNARQKARK [D27E] | -0.084 ± 0.085 |
| SSRTRFTDYQLRVLQDFFDANAYPKDIEFEQLSNLLNLPTRVIVVWFQNARQKARK [D27I] | -0.17 ± 0.15 |
| SSRTRFTDYQLRVLQDFFDANAYPKDTEFEQLSNLLNLPTRVIVVWFQNARQKARK [D27T] | -0.078 ± 0.091 |
| SSRTRFTDYQLRVLQDFFDANAYPKDLEFEQLSNLLNLPTRVIVVWFQNARQKARK [D27L] | -0.17 ± 0.074 |
| SSRTRFTDYQLRVLQDFFDANAYPKDKEFEQLSNLLNLPTRVIVVWFQNARQKARK [D27K] | -0.113 ± 0.1 |
| SSRTRFTDYQLRVLQDFFDANAYPKDNEFEQLSNLLNLPTRVIVVWFQNARQKARK [D27N] | -0.063 ± 0.15 |
| SSRTRFTDYQLRVLQDFFDANAYPKDWEFEQLSNLLNLPTRVIVVWFQNARQKARK [D27W] | -0.157 ± 0.082 |
| SSRTRFTDYQLRVLQDFFDANAYPKDREFEQLSNLLNLPTRVIVVWFQNARQKARK [D27R] | -0.147 ± 0.071 |
| SSRTRFTDYQLRVLQDFFDANAYPKDAEFEQLSNLLNLPTRVIVVWFQNARQKARK [D27A] | -0.117 ± 0.071 |
| SSRTRFTDYQLRVLQDFFDANAYPKDVEFEQLSNLLNLPTRVIVVWFQNARQKARK [D27V] | -0.215 ± 0.073 |
| SSRTRFTDYQLRVLQDFFDANAYPKDGEFEQLSNLLNLPTRVIVVWFQNARQKARK [D27G] | 0.095 ± 0.069 |
| SSRTRFTDYQLRVLQDFFDANAYPKPDEFEQLSNLLNLPTRVIVVWFQNARQKARK [D26P] | -0.163 ± 0.14 |
| SSRTRFTDYQLRVLQDFFDANAYPKHDEFEQLSNLLNLPTRVIVVWFQNARQKARK [D26H] | -0.683 ± 0.26 |
| SSRTRFTDYQLRVLQDFFDANAYPKQDEFEQLSNLLNLPTRVIVVWFQNARQKARK [D26Q] | -0.188 ± 0.22 |
| SSRTRFTDYQLRVLQDFFDANAYPKTDEFEQLSNLLNLPTRVIVVWFQNARQKARK [D26T] | 0.021 ± 0.12 |
| SSRTRFTDYQLRVLQDFFDANAYPKYDEFEQLSNLLNLPTRVIVVWFQNARQKARK [D26Y] | -0.105 ± 0.15 |
| SSRTRFTDYQLRVLQDFFDANAYPKMDEFEQLSNLLNLPTRVIVVWFQNARQKARK [D26M] | 0.018 ± 0.2 |

| Variant | abundance fitness |
| --- | --- |
| SSRTRFTDYQLRVLQDFFDANAYPKSDEFEQLSNLLNLPTRVIVVWFQNARQKARK [D26S] | -0.219 ± 0.12 |
| SSRTRFTDYQLRVLQDFFDANAYPKKDEFEQLSNLLNLPTRVIVVWFQNARQKARK [D26K] | -0.1 ± 0.19 |
| SSRTRFTDYQLRVLQDFFDANAYPKVDEFEQLSNLLNLPTRVIVVWFQNARQKARK [D26V] | -0.055 ± 0.12 |
| SSRTRFTDYQLRVLQDFFDANAYPKRDEFEQLSNLLNLPTRVIVVWFQNARQKARK [D26R] | -0.16 ± 0.083 |
| SSRTRFTDYQLRVLQDFFDANAYPKIDEFEQLSNLLNLPTRVIVVWFQNARQKARK [D26I] | 0.038 ± 0.21 |
| SSRTRFTDYQLRVLQDFFDANAYPKLDEFEQLSNLLNLPTRVIVVWFQNARQKARK [D26L] | -0.307 ± 0.11 |
| SSRTRFTDYQLRVLQDFFDANAYPKGDEFEQLSNLLNLPTRVIVVWFQNARQKARK [D26G] | -0.247 ± 0.096 |
| SSRTRFTDYQLRVLQDFFDANAYPKWDEFEQLSNLLNLPTRVIVVWFQNARQKARK [D26W] | -0.376 ± 0.14 |
| SSRTRFTDYQLRVLQDFFDANAYPKFDEFEQLSNLLNLPTRVIVVWFQNARQKARK [D26F] | -0.332 ± 0.22 |
| SSRTRFTDYQLRVLQDFFDANAYPKDDMFEQLSNLLNLPTRVIVVWFQNARQKARK [E28M] | -0.347 ± 0.14 |
| SSRTRFTDYQLRVLQDFFDANAYPKDDDFEQLSNLLNLPTRVIVVWFQNARQKARK [E28D] | 0.2 ± 0.22 |
| SSRTRFTDYQLRVLQDFFDANAYPKDDLFEQLSNLLNLPTRVIVVWFQNARQKARK [E28L] | -0.739 ± 0.11 |
| SSRTRFTDYQLRVLQDFFDANAYPKDDNFEQLSNLLNLPTRVIVVWFQNARQKARK [E28N] | -0.39 ± 0.19 |
| SSRTRFTDYQLRVLQDFFDANAYPKDDHFEQLSNLLNLPTRVIVVWFQNARQKARK [E28H] | -0.435 ± 0.2 |
| SSRTRFTDYQLRVLQDFFDANAYPKDDIFEQLSNLLNLPTRVIVVWFQNARQKARK [E28I] | -0.374 ± 0.2 |
| SSRTRFTDYQLRVLQDFFDANAYPKDDCFEQLSNLLNLPTRVIVVWFQNARQKARK [E28C] | -0.539 ± 0.2 |
| SSRTRFTDYQLRVLQDFFDANAYPKDDGFEQLSNLLNLPTRVIVVWFQNARQKARK [E28G] | -0.488 ± 0.1 |
| SSRTRFTDYQLRVLQDFFDANAYPKDDFFEQLSNLLNLPTRVIVVWFQNARQKARK [E28F] | -0.603 ± 0.21 |
| SSRTRFTDYQLRVLQDFFDANAYPKDDRFEQLSNLLNLPTRVIVVWFQNARQKARK [E28R] | -0.481 ± 0.088 |
| SSRTRFTDYQLRVLQDFFDANAYPKDDQFEQLSNLLNLPTRVIVVWFQNARQKARK [E28Q] | -0.169 ± 0.13 |
| SSRTRFTDYQLRVLQDFFDANAYPKDDTFEQLSNLLNLPTRVIVVWFQNARQKARK [E28T] | -0.236 ± 0.13 |
| SSRTRFTDYQLRVLQDFFDANAYPKDDKFEQLSNLLNLPTRVIVVWFQNARQKARK [E28K] | -0.422 ± 0.13 |
| SSRTRFTDYQLRVLQDFFDANAYPKDDSFEQLSNLLNLPTRVIVVWFQNARQKARK [E28S] | -0.295 ± 0.11 |
